Test results reported in EP4711384A1 (WIO Bioscience Co., Ltd., dated 2026).

B1: hzWio-02-31 (His form) (bispecific antibody)
chain: EVQLVESGGGLVQPGGSLRLSCAASGFTYIPAYMGWFRQAPGKERERVASISSTEGSTTYADSVKGRFTISQDNSKNTLYLQMNSLRPEDTAVYYCAAYQFGAFRVWGQGTLVTVSSGGGGSEVQLVESGGGLVQPGGSLRLSCAASGFTVHDMGWYRQAPGKECELVSTISSDASTYYADSVKGRFTISRDNAKNTLYLQMNSLRAEDTAVYYCAADSFTGLQLAECKADFGYWGQGTLVTVSSHHHHHH
B2: hzWio-02-30 (His form) (bispecific antibody)
chain: EVQLVESGGGLVQPGGSLRLSCAASGFTYIPAYMGWFRQAPGKERERVASISSTEGSTTYADSVKGRFTISQDNSKNTLYLQMNSLRPEDTAVYYCAAYQFGAFRVWGQGTLVTVSSGGGGSEVQLVESGGGLVQPGGSLRLSCAASGSTFDEYDMGWYRQAPGGKCELVSTISTIDASTYYADSVKGRFTISRDNSKNTLYLQMNSLRAEDTAVYYCEADDRGTWDRGGCWGQGTLVTVSSHHHHHH
B3: hzWio-02-29 (His form) (bispecific antibody)
chain: EVQLLESGGGLVQPGGSLRLSCAASGYTYGPYCMGWFRQAPGKEREGVAAVGGDARTWYGNSVKGRFTISRDNSKNTLYLQMNSLRAEDTAVYYCAADFDRTVCSDDIYDYTYRGQGTLVTVSSGGGGSEVQLVESGGGLVQPGGSLRLSCAASGTAYDNACMGWFRQAPGKEREGVASIHLRDRTYYADSVKGRFTISRDNSKNTLYLQMNSLRAEDTAVYYCASSNICNALNLQGNTYWGQGTLVTVSSHHHHHH
B4: hzWio-02-11-His (bispecific antibody)
chain: EVQLVESGGGLVQPGGSLRLSCAASGSTFDEYDMGWYRQAPGGKCELVSTISTIDASTYYADSVKGRFTISRDNSKNTLYLQMNSLRAEDTAVYYCEADDRGTWDRGGCWGQGTLVTVSSGGGGSEVQLVESGGGLVQPGGSLRLSCAASGFTYIPAYMGWFRQAPGKERERVASISSTEGSTTYADSVKGRFTISQDNSKNTLYLQMNSLRPEDTAVYYCAAYQFGAFRVWGQGTLVTVSSHHHHHH
B5: hzWio-02-23-His (bispecific antibody)
chain: EVQLVESGGGLVQPGGSLRLSCAASGFTVHDMGWYRQAPGKECELVSTISSDASTYYADSVKGRFTISRDNAKNTLYLQMNSLRAEDTAVYYCAADSFTGLQLAECKADFGYWGQGTLVTVSSGGGGSEVQLVESGGGLVQPGGSLRLSCAASGFTYIPAYMGWFRQAPGKERERVASISSTEGSTTYADSVKGRFTISQDNSKNTLYLQMNSLRPEDTAVYYCAAYQFGAFRVWGQGTLVTVSSHHHHHH
B6: hzWio-02-01-His (bispecific antibody)
chain: EVQLVESGGGLVQPGGSLRLSCAASGTAYDNACMGWFRQAPGKEREGVASIHLRDRTYYADSVKGRFTISRDNSKNTLYLQMNSLRAEDTAVYYCASSNICNALNLQGNTYWGQGTLVTVSSGGGGSEVQLLESGGGLVQPGGSLRLSCAASGYTYGPYCMGWFRQAPGKEREGVAAVGGDARTWYGNSVKGRFTISRDNSKNTLYLQMNSLRAEDTAVYYCAADFDRTVCSDDIYDYTYRGQGTLVTVSSHHHHHH
B7: hzWio-02-44 (His form) (bispecific antibody)
chain: EVQLLESGGGLVQPGGSLRLSCAASGYTYGPYCMGWFRQAPGKEREGVAAVGGDARTWYGNSVKGRFTISRDNSKNTLYLQMNSLRAEDTAVYYCAADFDRTVCSDDIYDYTYRGQGTLVTVSSGGGGSQVQLQESGGGSVQAGGSLRLSCVASGTTMSMNYMAWFRQAPGKEREGVASIFRSTHYADSVKGRFTIAEDSAKNTVYLQMNSLKPEDTAVYYCAAGRTKPYLTPLAESQYNYWGQGIQVTVSSHHHHHH

Each binder was assayed against T1, human IL-18R1 and IL-18RAP on IL-18 Reporter HEK 293 Cells (human, UniProt Q13478 19-541; O95256 20-599) (assay: cell-based or functional assay).
T1 sequence (looked up) 1: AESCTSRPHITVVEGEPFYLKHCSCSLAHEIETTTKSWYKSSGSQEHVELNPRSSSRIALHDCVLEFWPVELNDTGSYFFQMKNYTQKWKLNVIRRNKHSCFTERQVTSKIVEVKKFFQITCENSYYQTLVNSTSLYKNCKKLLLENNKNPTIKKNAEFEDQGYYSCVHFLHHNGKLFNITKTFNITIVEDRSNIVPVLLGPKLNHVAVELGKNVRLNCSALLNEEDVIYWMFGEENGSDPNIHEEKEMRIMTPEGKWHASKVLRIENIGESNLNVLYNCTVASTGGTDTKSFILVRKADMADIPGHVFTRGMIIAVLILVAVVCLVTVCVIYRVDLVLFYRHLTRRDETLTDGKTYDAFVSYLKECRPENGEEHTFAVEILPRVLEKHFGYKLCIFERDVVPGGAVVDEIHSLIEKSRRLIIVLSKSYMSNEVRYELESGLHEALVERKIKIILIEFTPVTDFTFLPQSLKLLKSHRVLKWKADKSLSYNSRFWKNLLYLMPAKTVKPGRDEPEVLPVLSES
T1 sequence (looked up) 2: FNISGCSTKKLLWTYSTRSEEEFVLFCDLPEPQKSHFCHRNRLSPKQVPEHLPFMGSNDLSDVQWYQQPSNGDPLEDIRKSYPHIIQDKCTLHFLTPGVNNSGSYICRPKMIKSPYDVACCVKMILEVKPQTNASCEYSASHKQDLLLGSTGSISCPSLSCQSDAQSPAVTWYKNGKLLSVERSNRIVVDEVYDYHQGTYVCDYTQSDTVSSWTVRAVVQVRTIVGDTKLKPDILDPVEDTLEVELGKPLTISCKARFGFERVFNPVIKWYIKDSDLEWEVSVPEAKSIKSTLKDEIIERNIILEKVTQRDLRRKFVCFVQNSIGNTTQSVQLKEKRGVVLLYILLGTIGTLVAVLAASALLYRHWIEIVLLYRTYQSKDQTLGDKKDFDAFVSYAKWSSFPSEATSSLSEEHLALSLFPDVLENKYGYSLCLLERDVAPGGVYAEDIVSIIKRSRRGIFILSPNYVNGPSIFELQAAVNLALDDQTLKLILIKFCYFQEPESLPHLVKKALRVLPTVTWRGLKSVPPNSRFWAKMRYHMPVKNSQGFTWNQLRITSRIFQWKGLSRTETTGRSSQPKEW

| EC50 [ng/mL] | Top630nm | Binder |
| --- | --- | --- |
| 2.58 | 0.779 | B1 |
| 2.74 | 0.837 | B2 |
| 0.503 | 1.61 | B3 |
| 0.101 | 1.58 | B4 |
| 0.13 | 1.95 | B5 |
| 0.417 | 1.93 | B6 |
| 2.66 | 0.912 | B7 |

Molecular target: T1, human IL-18R1 and IL-18RAP on IL-18 …
Assay: cell-based or functional assay
Remark: another data set of the same source

| EC50 [ng/mL] | Top530nm | Binder |
| --- | --- | --- |
| 2.3 | 1.05 | B6 |
